Key:
[1] = system: 13 aa tau peptides of hT40; experiment: Alanine scanning mutagenesis (ASM) peptide ELISA; assay type: binding, human; conditions: alanine substituted peptides; numbering SEQ ID NO: 1
Method: Briefly, 5 μg/ml streptavidin (Thermo Fisher) was adsorbed to Nunc 96-well MaxiSorp plates and following incubation at 37° C. for 1 h, the plates were washed as normal and blocked with 2% MPBS. N-terminally biotinylated peptides (Prolmmune Ltd) were added to the plates and incubated for 1 h at 37° C. Subsequently, test scAbs at starting concentrations of 100-500 nM was added and double diluted across the plate for each peptide and incubated for 1 h at 37° C. Rest of the ELISA was conducted as described above and the plates were read at absorbance 450 nm. Immunoreactivity of the scAb of interest was quantified as the % of scAb was bound for each peptide at a chosen concentration (FIG. 15-20).

[2] = target: dGAE aggregates (Homo sapiens, UniProt P10636); experiment: Epitope occlusion assay: dGAE aggregation with/without LMTM, 423 mAb capture ELISA; assay type: biochemical; conditions: total and supernatant samples; 423 mAb capture
Sequence of dGAE aggregates (P10636 614-708): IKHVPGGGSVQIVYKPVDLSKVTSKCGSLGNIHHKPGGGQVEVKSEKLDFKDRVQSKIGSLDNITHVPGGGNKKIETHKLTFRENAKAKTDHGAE
Method: During dGAE aggregation in vitro, scAb binding regions on dGA/dGAE are ‘hidden’ or ‘occluded’ which leads to a loss of immunoreactivity in aggregation samples. Here we have shown the occlusion of binding regions in aggregated dGAE samples and the recovery of immunoreactivity in the presence of LMTM, a tau-aggregation inhibitor. For preparing the aggregates, 10 μl 10 mM DTT was added to 1000 μl 100 μM dGAE and agitated with/without LMTM (1:5 ratio) at 700 rpm for 24 h at 37° C. Following overnight agitation, one third of each sample was kept aside as ‘total’ and the rest was spun down at 16000×g for 30 min and separated into ‘supernatant’ and ‘pellet’. The pellet was then resuspended in half the original volume for further experiments. […] Doubling dilutions of dGAE aggregate ‘total’, ‘supernatant’ and ‘pellet’ samples at 10 μg/ml starting concentration were added to designated wells in doubling dilutions in 1×PBS. dGAE monomer (non-aggregated) was included as assay control. All double dilutions were done in final volumes of 100 μl. This was left to incubate on lab bench for 1 h followed by the addition of test scAbs at 10 μg/ml. Anti-HuCk HRP labelled secondary antibody was added as described previously and ELISA data generated is represented using the graph below.

[3] = system: hT40, dGA, dGAE and truncated tau fragments; experiment: Binding ELISA / epitope mapping of anti-tau scAbs with truncated tau proteins and 13mer peptides; parameters: species or system human; conditions: for Tau proteins/fragments with positive scAb reactivity / Shortest region bound on hT40: Table 17, 'C' group scAbs; for Tau proteins/fragments with positive scAb reactivity: binding ELISA; for Shortest region bound on hT40: incl. 13mer peptides; for Detection scAb (Epitope): Table 28 (LoD table)
Summary of the method: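 Plates coated with 1 μg/ml tau protein, or 5 μg/ml streptavidin then 1 μg/ml biotinylated 13mer peptide; blocked with 2% MPBS. scAbs added at a starting concentration and double-diluted. Bound scAb detected with HRP anti-human C kappa and read as absorbance.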

[4] = target: T1, hT40 (T441, SEQ ID NO: 1) (Homo sapiens, UniProt P10636); experiment: Biacore X100 SPR kinetics of scAbs for hT40; assay type: binding; conditions: Table 23; scAb captured, T441 (hT40) analyte; 1:1 model
T1 construct: Full length tau (hT40)
T1 sequence (P10636 1-441 isoform P10636-8): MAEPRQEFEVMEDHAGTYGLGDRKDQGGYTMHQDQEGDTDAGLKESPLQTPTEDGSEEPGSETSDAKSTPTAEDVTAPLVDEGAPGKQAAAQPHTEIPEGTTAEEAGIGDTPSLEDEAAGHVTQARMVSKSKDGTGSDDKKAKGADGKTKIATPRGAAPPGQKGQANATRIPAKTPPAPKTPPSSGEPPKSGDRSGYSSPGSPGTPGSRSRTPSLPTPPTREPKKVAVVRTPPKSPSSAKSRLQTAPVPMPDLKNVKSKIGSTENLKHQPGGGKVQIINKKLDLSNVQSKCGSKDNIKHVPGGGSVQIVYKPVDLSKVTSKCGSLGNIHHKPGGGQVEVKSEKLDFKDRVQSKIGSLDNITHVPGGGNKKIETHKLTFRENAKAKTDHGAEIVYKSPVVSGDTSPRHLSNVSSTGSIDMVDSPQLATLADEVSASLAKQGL
Summary of the method: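 Captured scAb on anti-HuCk CM5 surface (flow cell 1 as reference) in HBS-EP+, capture set for theoretical RMax 100 RU; hT40 injected multi-cycle (0.15625–100 nM) or single-cycle (6.25–100 nM), 120 s association, 420 s dissociation, glycine pH 2.0 regeneration. Kinetics and affinity from 1:1 binding model fit.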

[5] = target: T2, htau40 (Homo sapiens, UniProt P10636); experiment: Biacore X100 SPR kinetics of anti-tau mAbs on immobilised htau40; assay type: binding
T2 construct: Full length tau (hT40)
T2 sequence (P10636 1-441 isoform P10636-8): as above
Method: For anti-tau mAb SPR measurements, htau40 was conjugated to the surface of a CM5 sensor chip using amine coupling as explained previously. Briefly, 2 μg/mL htau40 in 10 mM Sodium acetate buffer (pH 4.0) was passed over the activated chip surface (EDC/NHS) in flow cell 2 for a period for 45 s followed by blocking with 1 M ethanolamine-HCl PH 8.5. Flow cell 1 was set up as reference control and blocked simultaneously. Final immobilisation level of htau40 (Rmax) was approximately 250 RU. Following a minimum of three start-up cycles, increasing concentrations (0.78 nM-25 nM) of the mAb in HBS-EP+ buffer was added at a rate of […] to the chip. The mAb was added for a 120 s association period and 600 s dissociation period followed by a regeneration cycle of 30 s injection of glycine buffer pH 1.5 in between each cycle. Binding responses were analysed in Biacore X100 evaluation software and data fitted to a 1:1 binding model to obtain kinetic and affinity characterisation.
For anti-tau mAb SPR measurements (Biacore X100™) and epitope mapping, the same methodologies described above (see Example 16) were followed. Kinetic rates and equilibrium binding constants of additional anti-tau mAbs and the regions recognised on hT40 are given in the Table 25 below

[6] = target: T3, hT40 (Homo sapiens, UniProt P10636); experiment: Sandwich ELISA limits of detection (LoD) of antibody pairs; assay type: binding
T3 construct: Full length tau (hT40)
T3 sequence (P10636 1-441 isoform P10636-8): as above
Text: The diverse panel of high affinity anti-tau antibodies (scAb and mAb formats) were paired in various combinations and tested in a Sandwich (or Capture) ELISA format to calculate their limits of detection (LoD) and their ability to differentiate between different tau species. Biologically, tau exists in 6 different isoforms and is subjected to numerous post translational modifications, some of them playing a significant role in the progression of neurodegeneration.
For Sandwich ELISA using colourimetric detection, 96 well Maxisorp plates were coated with the capture antibody S1D12 mAb at 1 μg/ml for 1 h at RT followed by blocking with 2% MPBS as normal. Full length tau (hT40), at 1 μg/ml starting concentration was added to designated wells and double diluted across rest of the plates and left to incubate at R/T for 1 h. A series of detection scAbs with varying epitope recognition properties were added at 10 μg/ml to designated wells (FIG. 22). For colourimetric detection HRP conjugated anti-HuCk secondary antibody was used and the resulting immunoreaction was developed and absorbance at 450 nm measured as described previously. Cut-off point for a positive binding event was an absorbance value of 0.3 following background subtraction. In order to enhance the assay sensitivity, a chemiluminescent detection method was adopted where 50 μL SuperSignal ELISA Femto Substrate (Thermo Scientific) was added to each well following incubation with anti-HuCK HRP antibody and subsequent washing. The luminescence was read using Clariostar Plus microplate reader. A further modification to this protocol was done where various detection scAbs were directly conjugated with HRP and detected using chemiluminescent protocol as before. The lowest levels of detection achieved using different detection scAbs and a comparison of colourimetric and chemiluminescent methods of detection are shown in Table 28
Similarly, a sandwich ELISA format was set up using S1G2 mAb at 1 μg/ml as the capture antibody and HRP conjugated S1D12 mAb for detection. The assay was conducted using chemiluminescent protocol described above.

[7] = Table 27, mAb format, immobilised htau40
[8] = residue numbers of SEQ ID NO: 1 (hT40), CDR Tables 1-11

Molecule	critical binding residues [1]	immunoreactivity to dGAE aggregation samples prepared in the presence of LMTM [2]	Tau proteins/fragments with positive scAb reactivity [3]	Shortest region bound on hT40 [3]	ka [4]	kd [4]	ka [5, 7]	kd [5, 7]	Kd ([5]; as quoted in Example 32, read-out: affinity)	Epitope ([3]; Table 26 summary, top scAbs, residues of hT40)	Detection scAb (Epitope) ([3]; residues of hT40)	Binding regions on hT40 ([3]; Table 33, core binding scAbs tested in epitope occlusion assays)	Epitope [3, 8]	LOD for hT40 ([6]; S1G2 mAb capture, HRP labelled S1D12 mAb detection, chemiluminescence)	LoD (ng/ml) chemiluminescence detection ([6]; S1D12 mAb capture, hT40, SuperSignal ELISA Femto Substrate)	LoD (ng/ml) colourimetric detection ([6]; S1D12 mAb capture, hT40, detection scAb 10 μg/ml, anti-HuCk HRP)
CA9: anti-tau clone, Tables 2 and 10; SEQ ID NO: 371 (protein, CA9 amino acid sequence) scFv: QVQLQESGPSLVKPSQTLSLTCTVSGFSLTSNSVGWVRQAPGKAPEWVAGIDTDGEEGYNPALNSRLSITRDTSKSQVSLSLSSVTSEDTAVYYCGRSYRSDGLAYGYVQAIDYWGPGLLVTVSSEGKSSGASGESKVDDQAVLTQPASVSGSLGQRVSITCSGSFIGISSVGWFQQLPGSGLRTIIVASDGRPSGVPDRFSMSKSGNTATLTISSLQAEDEADYFCGSSDRTQYTGVFGSGTRLTVLG	370 (K), and/or 374 (H)	increase in immunoreactivity	hT40, 239-441, 348-441, 297-390 (dGA)	367-379												
CA4: anti-tau core clone, Table 10; SEQ ID NO: 368 (protein, CA4 amino acid sequence) scFv: QVQLQESGPSLVKPSQTLSLTCTVSGFSLTSYSVYWVRQAPGQALEWISIMYASGRVDYNPALKSRLSITRDTSKSQFSLSLSSVTTEDTAVYYCTRGIENWGPGLLVTVSSEGKSSGASGESKVDDDIQVTQSPSSLSASLTERVSITCRTSQSVNNYLSWYQQKPGQAPKLLIYYATRLYTDVPSRFSGSGSGTDYTLTITSLEADDTATYYCLQYDSTPLAFGGGTNVEIK	358 (D), 360 (I), 361 (T), 362 (H) and/or 364 (P)	increase in immunoreactivity	hT40, 239-441, 297-390 (dGA)	355-367	458100 M⁻¹ s⁻¹	0.001654 s⁻¹	1.02e+06 M⁻¹ s⁻¹	0.001276 s⁻¹	3 nM	355-367	CA4 (355-367)	355-367	355-367			
S1G2 mAb: S1G2 reformatted; heavy chain SEQ ID NO: 457, light chain 458 (antibody, S1G2 mAB Heavy Chain; S1G2 mAB Light Chain) heavy: QVQLQESGPSLVKPSQTLSLTCTVSGFSLTSNSVGWVRQAPGKAPEWVAGIDTDGEEGYNPALNSRLSITRDTSKSQVSLSLSSVTSEDTAVYYCGRSYRADGLAYGYVQAIDYWGPGLLVTVSSAKTTAPSVYPLAPVCGDTTGSSVTLGCLVKGYFPEPVTLTWNSGSLSSGVHTFPAVLQSDLYTLSSSVTVTSSTWPSQSITCNVAHPASSTKVDKKIEPRGPTIKPCPPCKCPAPNLLGGPSVFIFPPKIKDVLMISLSPIVTCVVVDVSEDDPDVQISWFVNNVEVHTAQTQTHREDYNSTLRVVSALPIQHQDWMSGKEFKCKVNNKDLPAPIERTISKPKGSVRAPQVYVLPPPEEEMTKKQVTLTCMVTDFMPEDIYVEWTNNGKTELNYKNTEPVLDSDGSYFMYSKLRVEKKNWVERNSYSCSVVHEGLHNHHTTKSFSRTPGK light: QAVVTQPSSVSGSLGQRVSITCSGSFIGISSVGWFQQLPGSGLRTIIVASDGRPSGVPDRFSMSKSGNTATLTISSLQAEDEADYFCGSSDRTPYTGVFGSGTRLTVLGGQPKSSPSVTLFPPSSEELETNKATLVCTITDFYPGVVTVDWKVDGTPVTQGMETTQPSKQSNNKYMASSYLTLTARAWERHSSYSCQVTHEGHTVEKSLSRADCS														~1 ng/mL		
CA2: anti-tau clone, Table 10; SEQ ID NO: 363 (protein, CA2 amino acid sequence) QVQLQESGPSLVKPSQTLSLTCTVSGFSLSSVAVNWVRQAPGKVPEWLGGIISNGGTGYNPALKSRLSITRDTSKSQVSLALTHVTTEDTAVYYCGRGVEWEGSMDYLGPGLLVTVSSEGKSSGSGSETKVDDQSVLTQPSSVSGFLGQRVTITCSGSSSNVGAGSYVGWYQQVPGSGLRILIYGATKRASGLPDRFSGSRSGNTATLTISSLQAEDEADYYCVSYQTDFTLVFGSGTRLTVLG			hT40, 1-49, 1-319, 1-155, 186-350, 348-441	1-155							CA2 (100-155)		1-155		0.37 ng/mL	6 ng/mL

From US20250355001A1, “METHOD FOR DETECTING A TAU PROTEIN FRAGMENT IN A SAMPLE” (GTINVENT LIMITED, priority 2022, published 2025)
